Assay results: patent US20190144535A1 (AGENCY FOR SCIENCE TECHNOLOGY AND RESEARCH, published 2019)

What was measured:
[1] = biological target: T1, human IL-1β (human, UniProt P01584 117-269); assay: cell-based or functional assay
[2] = biological target: T2, mouse IL-1β (mouse, UniProt P10749 118-269); assay: cell-based or functional assay
[3] = biological target: T1, human IL-1β; assay: ProteOn bioanalyzer (BioRad)
Protocol: (§1) Matured clones (except P1E8) were tested for affinity towards mouse and human IL-1β using the ProteOn bioanalyzer (BioRad, Hercules, USA).

[4] = biological target: T2, mouse IL-1β; assay: ProteOn bioanalyzer (BioRad)
Protocol: as §1

[5] = biological target: T2, mouse IL-1β; assay: cell-based or functional assay; remark: listed apart in the source
[6] = biological target: T1, human IL-1β; assay: cell-based or functional assay; remark: listed apart in the source
[7] = biological target: T2, mouse IL-1β; assay: ProteOn bioanalyzer (BioRad); end of the range tied to P2D7 by Table 1
Protocol: as §1

[8] = biological target: T2, mouse IL-1β; assay: direct ELISA, OD 460 nm against IgG 2H concentration
[9] = biological target: T2, mouse IL-1β; assay: ProteOn bioanalyzer (BioRad); end of the range tied to P1H8 by Table 1
Protocol: as §1

| Binder | Kd [3] [nM] | Kd [4] [nM] | EC50, inhibition of mouse IL-1β-induced IL-6 secretion by MRC5 cells [5] [nM] | EC50, inhibition of human IL-1β-induced IL-6 secretion by MRC5 cells [6] [nM] | further results |
| --- | --- | --- | --- | --- | --- |
| Fab clone 1H (Fab, V domains shown) VH: EVQLVQSGAEVKKPGASVKVSCKASGYTFTSYYMHWVRQAPGQGLEWMGLVDPEDGETIYAEKFQGRVTITADTSTDTAYMELSSLRSEDTAVYYCARVEWVAGTEGWGYYFDYWGQGTLVTVSS VL: NFMLTQPHSVSESPGKTVTIPCTASSGSIANNFVQWYQQRPGSAPTTVIYEDSQRPSGVPDRVSGSIDSSSNSASLTISGLKTEDEADYYCQSYDSANDRVTFGGGTKLIVLG | – | – | – | – | IC50 (concentration inhibiting 50% of IL-1β activity), HEK-Blue IL-1β cells, SEAP reporter [1]: 1.31 nM |
| IgG1 1H (antibody, V domains shown) VH: EVQLVQSGAEVKKPGASVKVSCKASGYTFTSYYMHWVRQAPGQGLEWMGLVDPEDGETIYAEKFQGRVTITADTSTDTAYMELSSLRSEDTAVYYCARVEWVAGTEGWGYYFDYWGQGTLVTVSS VL: NFMLTQPHSVSESPGKTVTIPCTASSGSIANNFVQWYQQRPGSAPTTVIYEDSQRPSGVPDRVSGSIDSSSNSASLTISGLKTEDEADYYCQSYDSANDRVTFGGGTKLIVLG | – | – | – | – | inhibition potency (EC50), human IL-1β induced IL-6 production in MRC5 cells [1]: 3.92 nM; potency (EC50), neutralization in HEK-Blue cells stimulated with 4 pM human IL-1β [1]: 2.6 nM; potency (EC50), neutralization in HEK-Blue cells stimulated with mouse IL-1β [2]: 11.5 nM |
| Fab clone 2H (Fab, V domains shown) VH: QVQLQQWGAGLLKPSETLSLTCAVYGGSFSDYYWSWIRQPPGKGLEWIGEIDHSGSTNYNPSLKSRVTISVDTSRNQFSLSLSSVTAADTAVYYCARASPSSGWTLDYWGQGTLVTVSS VL: QSVLTQPPSVSVSPGQTASITCSGDKLGDKFAFWYQQKPGQSPVLVIYLDNKRPSGIPERFSGSNSGNTATLTISGTQALDEADYYCQAWDSNIEVFGGGTKLTVLG | – | – | – | – | IC50 (concentration inhibiting 50% of IL-1β activity), HEK-Blue IL-1β cells, SEAP reporter [1]: 0.21 nM |
| P2D7 (antibody, V domains shown, claim 45 pairs 17 with 14); also called matured Ig P2D7) VH: QVQLQQWGAGLLKPSETLSLTCAVYGGSFSDYYWSWIRQPPGKGLEWIGEIDHSGSTNYNPSLKSRVTISVDTSRNQFSLSLSSVTAADTAVYYCARASPSSGWTLDYWGQGTLVTVSS VL: QSVLTQPPSVSVSPGQTASITCSGDKLGDKFAFWYQQKPGQSPVLVIYLDNKRPSGIPERFSGSNSGNTATLTISGTQALDEADYYCYAWADTYEVFGGGTK | 0.0031 | 0.0109 | 0.158 | 0.00653 | fold higher affinity compared to IgG 2H [7]: 3 to 13 fold |
| P1E8 (antibody, V domains shown) VH: QVQLQQWGAGLLKPSETLSLTCAVYGGSFSDYYWSWIRQPPGKGLEWIGEIDHSGSTNYNPSLKSRVTISVDTSKNQFSLKLSSVTAADTAVYYCARASPSSGWTLDYWGQGTLVTVSS VL: QSVLTQPPSVSVSPGQTASITCSGDKLGDKFAFWYQQKPGQSPVLVIYLDNKRPSGIPERFSGSNSGNTATLTISGTQALDEADYYCEAWDAAAEVFGGGTKLTVLG | – | – | 0.479 | 0.0453 | – |
| P2D8 (antibody, V domains shown, also called matured Ig P2D8) VH: QVQLQQWGAGLLKPSETLSLTCAVYGGSFSDYYWSWIRQPPGKGLEWIGEIDHSGSTNYNPSLKSRVTISVDTSRNQFSLSLSSVTAADTAVYYCARASPSSGWTLDYWGQGTLVTVSS VL: QSVLTQPPSVSVSPGQTASITCSGDKLGDKFAFWYQQKPGQSPVLVIYLDNKRPSGIPERFSGSNSGNTATLTISGTQALDEADYYCEAWADTYEVFGGGTKLTVLG | 0.00457 | 0.0166 | 0.197 | 0.011 | – |
| IgG1 2H (antibody, V domains shown, also called IgG 2H; IgG clone 2H) VH: QVQLQQWGAGLLKPSETLSLTCAVYGGSFSDYYWSWIRQPPGKGLEWIGEIDHSGSTNYNPSLKSRVTISVDTSRNQFSLSLSSVTAADTAVYYCARASPSSGWTLDYWGQGTLVTVSS VL: QSVLTQPPSVSVSPGQTASITCSGDKLGDKFAFWYQQKPGQSPVLVIYLDNKRPSGIPERFSGSNSGNTATLTISGTQALDEADYYCQAWDSNIEVFGGGTKLTVLG | 0.0783 | 0.142 | 1.25 | 0.148 | inhibition potency (EC50), human IL-1β induced IL-6 production in MRC5 cells [1]: 0.35 nM; potency (EC50), neutralization in HEK-Blue cells stimulated with 4 pM human IL-1β [1]: 0.17 nM; potency (EC50), neutralization in HEK-Blue cells stimulated with mouse IL-1β [2]: 1.5 nM; EC50 (read off the curve) [8]: ~0.3 nM |
| P1D9 (antibody, V domains shown, also called matured Ig P1D9) VH: QVQLQQWGAGLLKPSETLSLTCAVYGGSFSDYYWSWIRQPPGKGLEWIGEIDHSGSTNYNPSLKSRVTISVDTSRNQFSLSLSSVTAADTAVYYCARASPSSGWTLDYWGQGTLVTVSS VL: QSVLTQPPSVSVSPGQTASITCSGDKLGDKFAFWYQQKPGQSPVLVIYLDNKRPSGIPERFSGSNSGNTATLTISGTQALDEADYYCYAWDNAYEVFGGGTKLTVLG | 0.00673 | 0.0236 | 0.241 | 0.0207 | – |
| P1H8 (antibody, V domains shown, also called matured Ig P1H8) VH: QVQLQQWGAGLLKPSETLSLTCAVYGGSFSDYYWSWIRQPPGKGLEWIGEIDHSGSTNYNPSLKSRVTISVDTSRNQFSLSLSSVTAADTAVYYCARASPSSGWTLDYWGQGTLVTVSS VL: QSVLTQPPSVSVSPGQTASITCSGDKLGDKFAFWYQQKPGQSPVLVIYLDNKRPSGIPERFSGSNSGNTATLTISGTQALDEADYYCQAWADSFEVFGGGTKLTVLG | 0.0101 | 0.0489 | 0.623 | 0.0215 | fold higher affinity compared to IgG 2H [9]: 3 to 13 fold |
